Source: US20230357716A1

Biological target: CD38 (UniProt P28907)
Assay: cell-based or functional assay

Substance: daratumumab (antibody)
- reduction in detectable CD38+ pbNK cell counts against the control condition: 21 fold
